Measurements reported in the NTF2 design screens of Basanta et al. (2020).

Assay: protease stability score; higher = more stable; yeast display proteolysis, trypsin and chymotrypsin;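 further: log10 excess protease needed over predicted unfolded state with 0 meaning unfolded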

Row | Sequence | protease stability score
1 | DEEVLDDVVKVMHQNDFSRLKELFDKNATIEVGDKRYHGREEAHKLMDIIKKKVDHVRIDKVHKSGNKVRIDAILEYNGNHMKVVFVIKLHNGQAKNIHIEFTSENLQNKFKTLVD | 1.02
2 | DEDLNDMAVRMAEILNEGNEDEYNKQIDPHARFVIGDKEYSGHEHFKKEIQRQNKEMRVTVNLHRWDATNGEMHLVIHYSWNVNGRPTTIHVHFRITARGDKFKQIDVHMDPDELRRVDS | 0.765
3 | DEEAIKVQEEIQKQEEKGNEENVEKNMDENVKLRVGDKDLEGRSEVSKDVRRRKDEMRFQYLHMSYHSNGETIRVNIEMSSNHNGRPDTRRFDATFHIHNGKLTEYSKESSQ | 0.161
4 | DEELEDRWRKMLEARKTGDEDRIKENMDPNAELNVGDKTYHGHDKLAKTLVDEMRTIRVEYKKFSMDARGDTVEAKYRVIENHNGKPQEDTHRWSATNRGDKIQHVDVRSDK | -0.435
5 | DERIRKEHTKRLKAEQTGDPKSAHDMADENVRVKVGDKDLTGMDNIVKTIHEEKKDQRNQLDVHSIELHGEKVKIEMQVVIEHNGRPHKTEQYLVFRADNGKLKRMEQHDSG | 0.023
6 | DDSRRATEFNKQYREVFRTGDPRKFEDYMDPNARAHYGDKELHGREQLRNYWKELTDNADHLDVQIHHLHVSGDDVNVDFQWNIDVNGENVQRKVVIIARLENGQVRAKQIVEK | -0.143
7 | DDDASRRFHEFVKLVRTNNPHKAMEMVDPNARFHIGDKEIHGREDVRRWVSRMLREARVTIDLKSLDVQGEKVKVTNLVRRRHNGEPQQMSVHAQVVWHNGKIKQETAHFKG | 0.127
8 | DEEKAKHRVEEFTQLLQENDWDHLANMADENARVQVGDQVYDGRKDIERWAKQVKERVDNVTVKEMSVSGNKMNANVEFQINGVTVRATIEIDFHNGKAKHMRVDPDVVRKQSR | 0.727
9 | DEDRAKSFMQAVVDNDPDKILKMMDENVRIEYGNKEIHGHEDLRKFWDKLKDQVDHYQVDRYSIHNGTVNVDAQMVVNGVRVRFTIVAELRNGKVTSVKYRVTNPRQERQLDELWG | 1.23
10 | DEEKIARHVVRTWMENLKTGNFKEIEKMIDKDVEFEIGDKTVTGREEVRKRRKHEKDQADHIEVQVHDVRARGDKVNIDVVMEINNNGRTTTRRFVLVLSIHNGHAKIKMVTQG | 1.09
11 | DEDRMKRLVRIFEHGDEDKLRKQADENATLKVGNHEIHGREEVQTFAQILKERVDHFHVRRVDLKGNSITALVRATVNGQSVEFKVIIVVQNGRIKKITIHATSEEQMKQLDKLFS | 0.959
12 | DENDVKRVLDKLKDNNWEDLVKLMDKDARVEIGDHTIHGRENVHQWMSTIEKQVDHFQIDTMTVKGDTLDANVRMVVNGRKIVFRLKVSLKNGRITRIRFQATDEEQHQQIRQMLR | 1.29
13 | DEEVERLFKRFMSAVDEGNPDELKKQIDPNAKQHIGDKTYHGRETIASRIVKRRQKMRVTWKSISITDHNGTIKVTAHAVFNHNGRPKEVQLDIEVRAHGDQMKNFRVQVRG | 0.328
14 | DHDAKKRIHQLWHALQTGNPDEVVKQVDKDVKVRVGEKDIHGRDQVREDVEREQKDMRVEYKSIRVEMNGDKARVEVHYQHERDGQPRTHRADYEIKWQNGKVKEMRASQKP | -0.244
15 | DEHKEREIAERYAQNLTHGNPTEIARQFDPNVKMTVGDKELQGREQVEEALHNFRERVDHHSYDTFTVSNGRVNISAQANVDGKNVKVDVRVVVNNGRVKDVKINPEQWKHVQG | -0.234
16 | DHEVHKLFDDFLHAEETGNEEQLTELVDENAQIQVGDKEVHGRDHINKMHADLRRTMDLKLKDYKVNNNGNNVDVDMKYINEDNGKPSKVRMRAIYTFQNGRIKNVHQNRDQ | -0.366
17 | DTELTHELSHRIKDNNWEDLSKNADENVEFRVGNKEYHGKEEFQHLQENLKRQIDDVKIHSLTAQGDHLEADVVYNVNGRDLRFTFHMTVRNGKIKEMNASFRDESQVNTMLTVLN | -0.238
18 | DRDQEDSFAKKVADVIQTGNPDDMRKLADEDARVDVGDKQYTGREHVDEAVENERKRIDHQQINSFSVNNGQIHATVSYVHNGQTHRFVVNVEIHNGHIKRARWQSK | 0.273
19 | DREDQEEVARHLVEVLERGDPQKMLELADPNVRAEVGDKRYHGREDLKSIMDELSRQVDRIQVVHLDVKGNTVRVTVKNRVNGVVVDLVIIFHFRNGKLRDVTIDARNEEQLKKREG | 0.754
20 | EEEKLKKVAEEVFRMVQNGNYDQLAKLGKDNAEFQFADHRLKGKEQYKKYLEELVKRGVQFEVKKAQLKDNTVTMVTKAKYADTEATVTVQAKYEGGKLDRARVKLSEEVKKVLKKG | 0.065
21 | DESQVDEAKKMAKVWEDGDPDQLRRMADPNAKMHIGDKDIRGHTEATRWVRHLSEHMRQRLDSVRVDTEPNRAEAKIQLTVDVNGKPDRYTAHLNMVVDNGRVRKLEVRFDEEDKKRRQS | -0.139
22 | DEEKNRTAARRAAEVLRTNDPDEMSKLADKDATARIGDKHFHGKETLKEAMEELKRQVDHLRVESFRLDGDKIVITAVMSHNGKKQKIVVVAEVENGKVVDFKMDPDQVTRMQK | 0.532
23 | DEDEMKNVLELIRVMSKGDEDRIRERADPNVKVNIGDKRLQGREELARQASTEKKKMDIHIRVDSVHVHDGNVLIVYKRENHYNGEPNRDEQRFQAQASNGNLKNMSWRFDEDKKRKIET | -0.038
24 | DEDDQKLITEFLKALERGDPDRLLENADPNASARVGDKDVHGMHNAATDWVRERNSMDVTYDSVEIHVHNGRATIHLDAQFDFNGKPWRDTMTVEIVIRNGKIKDIIFRFDEQQLRDITK | 0.714
25 | DEEARKLVHRILEAWKHGDEEHFKEQFDPNVDVDVGDKRYHGRHTIATRVQRELDEIDIRIEVHHITVEGDRADMDATVVLNINGKPVHVRVTWVFQITNGVAVYMQLRVSEDQRREQES | 1.15

Row | Sequence | protease stability score
26 | DEHKEAHQFAREMNKALETGDPDRYAQLADPNVKVDIGDKTYKGREDMSQYIEDLLTDADHVSMNIRSIDVQGEKVSLDFEVSNDSNGQQTRRKVKVTAERQGDKLVIVSIKVS | 0.184
27 | DDRRLAQEMANQFRKIRETGNPDDIVQLADPNAKYRIGERDVHGKEEIKKDFQEEKDRVDRIEVEIDSIEVKNGEVRVTFILRRTHNGRRESRTLVMNARVDNGRLTMESATEK | -0.205
28 | DEKEVKDNAHDLFRAMQTGDEQEIENLMDENVEAQVGDTTWHGREEAARELVLTQKRYDRVRVDRIQVTGEDVKIDFKLNIDGTKETHILVMRVHNGKIVSMSNETR | 1.51
29 | DDTHTAEEWFHHLMNILKTNDPDRFANQFDKDARLHYGDTEVRGRENMIEFLRHMVKRIDHQSYTLLQIRVSNGRVEIKVRASMKYDGRVIDDNVEFEADLRGDKIKARQVNIG | 0.564
30 | DKKLSRQFREFWRAMEDGDPDKLRENADPNVKYVVGDKTIHGRETYVKEAQDRRREMRVELDTMSINDKGERITVEYVQVNEHNGRPKQAVYRQVILFKNGRIKEVRQTKTD | -0.073
31 | DEDALRVFDKLVKAWKNNDEDKMKKLMDPNVKVEYGDKQVHGMDEYLHSMVTRQRQIRVHFRVKDIKTRPGRVVANYEVEEENDGKPHHTKVRVTLKVHNGRVKQAEYDVKP | 0.017
32 | DESQHQSLAKNLVRIFEEGDEDDVRKLADKDARLEVGDHELRGREQVAKFYKRVRDRIDELEIRDVHVQGERVSVHVVVRYNGRHVDFKINIVAHNGRITRVRVDPDRFRQLHS | 1.64
33 | DERDQELFQNFIKALQTNNPDQVMEQVDPNAEIQYGDRVVRGRHQLRREVEQEHHEMRNDIKVRSIRANNGHVEATFDVVFEINGKPVENRVSVILEMRDGRAKHIEWRIPSEVKEQLKG | 0.059
34 | DDHALRLVEEFLRAMRTGDEDKLKELVDPNARVTVGDHVWHGMESAAREWKRLKDEMRIKIDLQHVDDHGNSANAKASLAFRVNGKPQQNHMKMEVIFENGRIQSIVLRFSNEVEHNIKR | 1.28
35 | DEEKKANHFNKEFDRNVQRNNETELRKMVDPNARVNVGEQNYSGRNKMVKIITDWLRKYDKFTIDVRRIDVHGNRIFIDFEMVVVSNGQRRTTEIRVVVEEHNGRLHIRVWEIT | 0.516
36 | DEQEHAKRVVRRLIDAFKDGDPKTYAQQLDPNVRIQIGDKEITGREKVREEFRTVRQRVDHVNLHVKRVDVNGDKIVVQIRVVRKHNGRTEQRTLVVEVRDHNGREVVKHVSFK | 0.884
37 | DEKKAKEAAHRLLEAMVTGDPRKLNENADEDVQVEYGDKSYTGREKLNEWAHEFQKRVDHVRIESIHQRGDTATVKVRVEHNGETDTFVLIVEAHNGRAKRIRQETR | 1.11
38 | DDDQKRRVEDWWKVLNHGDPDKLRTLADENAKFDVGDKKYHGMTRAADELVRTLREIRLNIRRMEIQVHNGRVVANVDAEVRVNGNPMQIHYTAQMTASNGKITSVQNRIPSEQLKRLRK | 0.165
39 | DETDKAHEFMRKMKRALDQNDPDKLMDLFDPNAKVKVGEKKIHGRERISNDLQRHAHNADHIHMEIQDMKVSGDKINITFRVTSVVNGNTRSNRVLIRARIDNGHIKAVDVQQK | 0.855
40 | DEEVADNFRKLLHNLEQGDKRRVKEMVDENAHIVVGDKVYHGWETAAQDLVRLMHEIHFTITSVHVEVSNGRVRLKVHMKINVNGKPFRMVFTQEIEAENGTVKYINVQFDPEVLRRIES | 0.97
41 | DHKELKKYLEQVEKNDFDKLKKNVDEDARVNYGNKTWHGREQVQKYWDDLKKRIDHFDVTHMTVKGDKLHYIVRMNVNGQNFEHKVVIEIQNGKIKQVDARYRDEKQKEKLEKVAD | 0.868
42 | DEEVKHSVDKYLQAVRQGDPDKLREMADENVTVDIGDTTYHGMSEYARRVVERQKKIRIHYDLKSLTVSGNHVKIDQEVVKHHNGKPERNRVTVIMHLNNGRIQSMSVKVDG | 0.277
43 | DDTVRELVKQLRTALESNDEKKVKRLVDPNAQFQYGDKTLHGMTHAASRRVKEHQEIRLSIKKFHVNVSGDHVRVEFRYEVNVNGRPRKASATFTARFENGKMKEQRLRFDEDEYRKLKK | 0.063
44 | DEEDKMTELTSRMIQAVRQNDFHKIVDQFDKNVTFEVGDHRVHGRTQAQEWARHLLRRVDHATVNLKHVEVQGDTARVKMQLILDRNGRRETRTVIIEAEIDGDKVRAKKLSIG | 1.66
45 | DDHLRREAKKMVKNYVKGDPDKVMEYVDPNATVNVGDKNIRGRESVREWVKTQKDQMRIQLTSMRVDASNGRVKISLDFRLNDNGKPDRVTVDIKLNMRNGRVQHVNIQTHK | 0.279
46 | DEEYAHQLREFLEAWVSGDENRAKQLADPNARVNVGEERISGMDEFMKEVRKRKKEMRIEVKHIKIEVRPNKAKADVKFRVNFNGTPFDVNQKWQAHWHNGKLHSVTVNMDEDQKRFEKG | 0.451
47 | DEKLHHQIKEFIKAMKNGDPDKVQELADPNAEFRVGDKEIHGMDKYHKTVHDRHRKQRVNIQLHQLTVKGDKAEFVVTIDVQHNGQPSNDVYRAVIKLKNGKIQVVDRQKDQ | -0.138
48 | DEKKDREAAQKAARAFVKGNKDKVKELGKEDVTAKFGDEEFRGVDQVTKAMEHWLKMGDQMQLREEKDEKNHVKVRTDQRVGGYEVTTEATYHAQGGRVDHAEDREPPEAQKLMQKG | -0.258
49 | DREEQSEFAKKFLEVVMHGDPKKIRKLADPNAKADVGDKKYHGRESMAKWAHDFRKEVDHIEFKDLKVDGETARLDVVYDVNGHKERQVVVVTAHNGRVKHMQVEEG | -0.18
50 | DEEQVRKVVEQLLKMLQNKNTEEIVKLVKEDATFTLGDETRRGQEDVRKLVQRLKEQGAEFHTHEVRVKGGEAKAKTQWHVANREVHAEVKYVVRGDKVEKVEVRWSEEAKKALKEG | -0.071
